How the values were obtained:
[1] = molecular target: T1, PP1c (Oryctolagus cuniculus, UniProt P62143); assay: Glycogen synthase phosphatase activity of PP1c; format: biochemical, rabbit
T1 construct: from tissue; host or cells: rabbit skeletal muscle (PP1G dissociated with LiBr)
Experimental: The glycogen synthase phosphatase activity of PP1c was measured after a 15 minute incubation at 30° C. with the indicated concentrations of M110-(M1-F38) and M110-(M1-E309). Similar results were obtained in three different experiments.
^32P-labelled rabbit skeletal muscle phosphorylase a (containing 1.0 mol phosphate per mol subunit) was prepared by phosphorylation with phosphorylase kinase, ^32P-labelled rabbit skeletal muscle glycogen synthase (containing 1.5 mol/mol subunit in the sites 3 region) was prepared by phosphorylation with glycogen synthase kinase-3 [24]). ^32P-labelled chicken gizzard MLC20 and ^32P-labelled chicken gizzard heavy meromyosin (containing 1.0 mol phosphate per mol subunit) were prepared by phosphorylation with smooth muscle myosin light chain kinase. The dephosphorylation of phosphorylase a (10 μM), glycogen synthase (1 μM) and MLC20 (1 μM) and heavy meromyosin (1 μM) was carried out as in [24]. One unit of activity (U) was that amount which released […] of phosphate in one minute.

[2] = molecular target: T2, myosin (Gallus gallus, UniProt P10587); assay: Myosin binding assay (pelleting with myosin); design: species or system chicken; settings: myosin 1 μM, 15 min 0° C.
T2 construct: from tissue; host or cells: chicken gizzard
T2 sequence (P10587 whole entry): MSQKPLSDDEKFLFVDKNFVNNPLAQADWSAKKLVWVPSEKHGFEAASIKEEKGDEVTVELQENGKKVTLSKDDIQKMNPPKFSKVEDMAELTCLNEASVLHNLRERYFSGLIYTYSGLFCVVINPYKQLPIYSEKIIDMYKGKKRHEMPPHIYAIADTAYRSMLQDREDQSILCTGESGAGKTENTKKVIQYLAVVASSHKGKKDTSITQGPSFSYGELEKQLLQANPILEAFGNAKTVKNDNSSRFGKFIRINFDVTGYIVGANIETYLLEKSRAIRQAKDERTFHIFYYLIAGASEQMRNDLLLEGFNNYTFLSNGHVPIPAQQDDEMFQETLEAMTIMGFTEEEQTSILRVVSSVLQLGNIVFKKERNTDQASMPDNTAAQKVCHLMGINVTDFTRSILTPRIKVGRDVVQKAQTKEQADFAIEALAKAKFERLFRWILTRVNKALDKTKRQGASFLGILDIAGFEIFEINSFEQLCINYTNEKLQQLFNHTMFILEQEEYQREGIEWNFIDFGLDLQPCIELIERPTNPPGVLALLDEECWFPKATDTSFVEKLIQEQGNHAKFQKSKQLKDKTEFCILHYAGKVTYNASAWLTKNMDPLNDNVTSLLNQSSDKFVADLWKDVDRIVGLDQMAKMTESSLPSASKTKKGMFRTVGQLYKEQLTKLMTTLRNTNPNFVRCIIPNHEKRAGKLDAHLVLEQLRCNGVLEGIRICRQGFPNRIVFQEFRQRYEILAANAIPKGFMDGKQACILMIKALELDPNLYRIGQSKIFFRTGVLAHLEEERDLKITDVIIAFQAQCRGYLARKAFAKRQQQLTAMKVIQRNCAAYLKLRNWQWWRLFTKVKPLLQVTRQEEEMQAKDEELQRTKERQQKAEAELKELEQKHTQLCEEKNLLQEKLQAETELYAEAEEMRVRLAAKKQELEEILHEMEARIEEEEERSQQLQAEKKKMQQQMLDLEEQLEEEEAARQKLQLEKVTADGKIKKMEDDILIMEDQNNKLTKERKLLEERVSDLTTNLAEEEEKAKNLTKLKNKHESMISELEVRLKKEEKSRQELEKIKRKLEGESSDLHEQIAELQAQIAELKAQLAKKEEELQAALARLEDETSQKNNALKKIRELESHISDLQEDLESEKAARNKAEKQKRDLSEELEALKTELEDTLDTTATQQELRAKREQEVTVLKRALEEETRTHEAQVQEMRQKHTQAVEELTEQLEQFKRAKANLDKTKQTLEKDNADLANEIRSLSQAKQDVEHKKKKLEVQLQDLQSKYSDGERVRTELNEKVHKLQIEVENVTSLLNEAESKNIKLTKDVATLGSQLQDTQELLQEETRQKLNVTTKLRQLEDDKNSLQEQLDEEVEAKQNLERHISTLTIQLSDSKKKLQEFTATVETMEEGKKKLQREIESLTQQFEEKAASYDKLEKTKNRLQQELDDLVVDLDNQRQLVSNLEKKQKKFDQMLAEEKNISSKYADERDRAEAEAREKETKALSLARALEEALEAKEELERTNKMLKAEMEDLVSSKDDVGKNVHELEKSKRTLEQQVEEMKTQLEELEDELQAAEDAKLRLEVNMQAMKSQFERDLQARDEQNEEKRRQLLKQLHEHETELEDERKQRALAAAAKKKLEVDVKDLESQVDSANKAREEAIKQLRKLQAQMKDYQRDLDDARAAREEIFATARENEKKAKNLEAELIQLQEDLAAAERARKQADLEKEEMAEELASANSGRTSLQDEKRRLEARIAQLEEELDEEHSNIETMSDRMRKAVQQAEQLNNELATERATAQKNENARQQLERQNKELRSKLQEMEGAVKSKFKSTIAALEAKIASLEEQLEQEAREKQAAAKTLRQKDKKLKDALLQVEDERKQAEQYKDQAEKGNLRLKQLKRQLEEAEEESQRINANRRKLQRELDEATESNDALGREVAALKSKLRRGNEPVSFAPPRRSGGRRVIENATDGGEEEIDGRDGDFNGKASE
T2 sequence (P02612 whole entry partner): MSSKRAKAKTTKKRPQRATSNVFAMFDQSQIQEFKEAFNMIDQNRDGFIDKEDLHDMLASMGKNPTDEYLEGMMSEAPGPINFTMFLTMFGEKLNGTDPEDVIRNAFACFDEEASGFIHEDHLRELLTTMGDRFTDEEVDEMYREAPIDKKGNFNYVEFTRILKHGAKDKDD
T2 sequence (P02607 whole entry partner): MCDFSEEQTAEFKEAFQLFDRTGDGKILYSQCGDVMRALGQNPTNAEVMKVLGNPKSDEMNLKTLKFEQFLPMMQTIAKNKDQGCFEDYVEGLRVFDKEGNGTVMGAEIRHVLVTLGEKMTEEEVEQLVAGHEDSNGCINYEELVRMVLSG
In short: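 PP1M, PP1c, PP1M(ΔM21) or M110 fragments (30 nM; M110 fragments and M21 at 100 nM) incubated 15 min at 0° C with 1 μM myosin in 10 mM Hepes pH 7.5, 50 mM KCl, 5 mM MgCl2, then centrifuged 2 min at 13,000×g. Supernatant, pellet and total analysed by immunoblot or P-light chain phosphatase activity.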

[3] = system: M21 subunit; assay: Far Western blotting: interaction with the M21 subunit; format: binding, chicken; settings: probe 0.2 μg/ml
M21 subunit, sequence (as listed by the source): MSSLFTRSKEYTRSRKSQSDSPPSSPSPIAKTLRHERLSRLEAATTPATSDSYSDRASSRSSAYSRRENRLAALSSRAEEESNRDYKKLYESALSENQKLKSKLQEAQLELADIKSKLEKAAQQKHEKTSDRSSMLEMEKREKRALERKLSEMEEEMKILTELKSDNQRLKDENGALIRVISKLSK
In short: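 Proteins (PP1M, M110 and M21 fragments, MBP or GST fusions) resolved on 12% or 16.5% SDS gels, transferred to nitrocellulose and probed with digoxigenin-labelled M21, M21-(M1-L146) or MBP-M110-(K933-I1004) at 0.2 μg/ml. Parallel gels Coomassie-stained; protein by Bradford.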

T1 sequence (P62143 whole entry): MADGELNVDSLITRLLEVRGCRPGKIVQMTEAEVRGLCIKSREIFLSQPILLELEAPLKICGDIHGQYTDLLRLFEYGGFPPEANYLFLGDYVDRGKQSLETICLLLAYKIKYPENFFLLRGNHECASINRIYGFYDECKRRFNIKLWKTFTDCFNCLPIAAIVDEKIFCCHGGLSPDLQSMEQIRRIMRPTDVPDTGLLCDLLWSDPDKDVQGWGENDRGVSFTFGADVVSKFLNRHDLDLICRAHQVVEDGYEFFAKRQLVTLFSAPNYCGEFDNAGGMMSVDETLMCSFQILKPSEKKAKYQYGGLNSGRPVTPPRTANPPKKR

B1: M110-(M1-E309): rat aorta M110 fragment, residues 1-309, released from GST-fusion protein with thrombin (protein)
chain: GSPGMKMADAKQKRNEQLKRWIGSETDLEPPVVKRQKTKVKFDDGAVFLAACSSGDTDEVLKLLHRGADINYANVDGLTALHQACIDDNVDMVKFLVENGANINQPDNEGWIPLHAAASCGYLDIAEFLIGQGAHVGAVNSEGDTPLDIAEEEAMEELLQNEVNRQGVDIEAARKEEERIMLRDARQWLNSGHISDVRHAKSGGTALHVAAAKGYTEVLKLLIQAGYDVNIKDYDGWTPLHAAAHWGKEEACRILVDNLCDMETVNKVGQTAFDVADEDILGYLEELQKKQNLLHSEKRDKKSPLIESTANMEA
[1]
  effect on the dephosphorylation of glycogen synthase by PP1c: inhibited
[2]
  binding to myosin: did not bind to myosin
[3]
  recognised by digoxigenin-labelled M21 subunit in Far Western blotting: not

— patent US6884600B1, “Protein phosphatase-1 catalytic subunit interactions” (Medical Research Council London, priority 1996, dated 2005)
